Substitutions are numbered along the chain they refer to. Names and notes keep the numbering of the source.
Columns and labels:
Cynomolgus IL-33-his = molecular target: T1, Cynomolgus IL-33-his (cynomolgus, UniProt A0A2K5W3I1 112-269, biotinylated in the ELISA of Example 6); assay: indirect ELISA, biotinylated cynomolgus IL-33-his on streptavidin plate
T1 construct: Bought protein; also called cynomolgus IL-33 protein; Cynomolgus monkeys IL-33
T1 sequence: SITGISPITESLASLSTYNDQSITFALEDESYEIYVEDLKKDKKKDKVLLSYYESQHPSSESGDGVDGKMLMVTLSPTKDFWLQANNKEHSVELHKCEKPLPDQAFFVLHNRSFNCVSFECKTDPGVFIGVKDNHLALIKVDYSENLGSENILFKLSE
Protocol: The binding ability of murine antibody to cynomolgus IL-33 was determined by indirect enzyme-linked immunosorbent assay (ELISA). The specific methods were as follows: The plate was pre-coated by biotin-avidin (SA) which was diluted in coating solution (50 mM carbonate coating buffer, pH 9.6) to 2 μg/ml at 4° C. overnight. The plate was blocked with 5% skim milk powder at 37° C. for 2 hours, and stored at −80° C. for later use. Biotinylated recombinant cynomolgus IL-33-his protein was diluted to 1 μg/ml in coating solution (50 mM carbonate coating buffer, pH 9.6) and was added at 100 μl/well to the pre-coated SA plate for 0.5 h at 37° C. After washing the plate with PBST for 3 times, the antibodies to be tested were diluted by gradient with 1% BSA buffer and added into the blocked plate with 100 μl/well, and incubated at 37° C. for 1 hour. The plate was washed with PBST for 3 times, and the HRP-labeled goat anti-mouse IgG was added and placed at 37° C. for 30 min. After washing the plate with PBST for 3 times, the plate was patted on the absorbent paper to remove residual droplets as far as possible. […] OD values were read at 450 nm on the microplate reader to analyze the binding ability of the antibody to the target antigen cynomolgus IL-33-his.

Human IL-33-his [1] = molecular target: T2, Human IL-33-his (human, UniProt O95760 112-270, biotinylated with EZ-Link NHS-Biotin where used as IL-33-his-biotin); assay: competition ELISA, antibody mixed with IL-33-his-biotin, ST2 on plate; competitor ST2
T2 construct: Used plain (SPR, cell assays) and biotinylated (ELISA); also called IL-33-his-biotin
T2 sequence: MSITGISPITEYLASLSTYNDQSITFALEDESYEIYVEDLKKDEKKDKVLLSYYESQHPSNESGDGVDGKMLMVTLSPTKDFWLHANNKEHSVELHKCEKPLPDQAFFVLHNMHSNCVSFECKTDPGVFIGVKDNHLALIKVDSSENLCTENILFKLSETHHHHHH
Protocol: ST2 is the only receptor for IL-33 that has been discovered so far. As a cytokine, IL-33 exerts its physiological function depending on ST2 signaling pathway, and the blocking activity of antibody can reflect the neutralizing activity thereof. The specific method was as follows: the plate was coated with 2 μg/ml ST2 PBS solution at 4° C. overnight; the plate was washed with PBST for 3 times, then the plated was blocked with 5% skim milk powder at 37° C. for 2 hours; the plate was washed with PBST for 3 times for later use. 20 ng/ml IL-33-his-biotin antigen diluted by 1% BSA was mixed with antibodies to be tested diluted by gradient with 1% BSA at 1:1 equal volume and incubated at 37° C. for […]. The mixture was added to a pre-coated ST2 plate and incubated at 37° C. for 1 h. The plate was washed with PBST for 3 times. HRP-labeled streptavidin secondary antibody was added at 1:8000 and incubated at 37° C. for 0.5 hours. After washing the plate with PBST for 3 times, the plate was patted on the absorbent paper to remove residual droplets as far as possible. 100 μl TMB was added to each well, and the plate was placed at room temperature (20±5° C.) for 5 minutes away from light; 50 μl 2M H₂SO₄ terminating solution was added to each well to terminate the substrate reaction. OD values were read at 450 nm on the microplate reader.

Human IL-33-his [2] = molecular target: T2, Human IL-33-his; assay: cell-based or functional assay
Human IL-33-his [3] = molecular target: T2, Human IL-33-his; assay: indirect ELISA, biotinylated IL-33-his on streptavidin plate
Protocol: The binding ability of murine antibody to human IL-33 protein was determined by indirect enzyme-linked immunosorbent assay (ELISA). The specific methods were as follows: The plate was pre-coated with biotin-avidin (SA) which was diluted in coating solution (50 mM carbonate coating buffer, pH 9.6) to 2 μg/ml at 4° C. overnight, then the plate was blocked with 5% skim milk powder at 37° C. for 2 hours and stored at −80° C. for later use. Biotinylated recombinant human IL-33-his protein was diluted to 0.5 μg/ml in coating solution (50 mM carbonate coating buffer, pH 9.6) and was added at 100 μl/well to the pre-coated SA plate, 37° C., 0.5 h. After washing the plate with PBST for 3 times, the antibodies to be tested were diluted by gradient with 1% BSA buffer and added into the blocked plate at 100 μl/well, and incubated at 37° C. for 1 hour. The plate was washed with PBST for 3 times, and the HRP-labeled goat anti-mouse IgG was added and placed at 37° C. for 30 min. After washing the plate with PBST for 3 times, the plate was patted on the absorbent paper to remove residual droplets as far as possible. […] OD values were read at 450 nm on the microplate reader to analyze the binding ability of the antibodies to be tested to the target antigen human IL-33-his.

Human IL-33-his [4] = molecular target: T2, Human IL-33-his; assay: ELISA, IL-33-his-biotin on streptavidin plate, anti-human Fc detection
Protocol: SA protein was diluted to 2 μg/mL to coat ELISA plate at 100 μL/well overnight at 4° C. The plate was washed with PBST (PBS containing 0.05% Tween20) for 3 times, and blocked with 2% BSA prepared in PBS at 200 μL/well, at room temperature for 2 h. After the plate was washed twice with PBST, IL-33-his-biotin protein was diluted to 1 μg/mL with 1% BSA prepared in PBST, and was added to ELISA plate at 100 μL/well. The plate was incubated at room temperature for 1 h, and each monoclonal antibody was diluted with 1% BSA prepared in PBST in a 3-fold gradient. The highest concentration of antibody was 10 μg/mL, and the antibody was diluted for 12 gradients. Each diluted monoclonal antibody was added to ELISA wells with 100 μL/well, and the plate was incubated at room temperature for 1 h. Each sample was added to duplicate wells in parallel. The plate was washed with PBST for 3 times, and HRP-anti human IgG Fc secondary antibody prepared with PBST was diluted at an appropriate ratio, and was added to ELISA wells at 100 μL/well. The plate was incubated at room temperature for 1 h. After washing with PBST for 3 times, TMB developing solution was added at 100 μL/well. When the development met expectations, 2M H₂SO₄ was added to terminate the chromogenic reaction at 70 μL/well. Each reaction solution was shaken uniformly and OD450 nm was read on a microplate reader. The data was analyzed and EC₅₀ was calculated.

Human IL-33-his [5] = molecular target: T2, Human IL-33-his; assay: competition ELISA: antibody mixed with IL-33-his-biotin, added to an ST2-Fc-coated plate, HRP-streptavidin; blocked ligand ST2-Fc
Protocol: ST2-Fc protein was diluted to 1 μg/mL with ELISA coating solution to coat ELISA plate with 100 μL/well. The plate was placed in a wet box at 4° C. for 16 h for coating. The ELISA plate was washed 3 times with PBST, and then was blocked with 2% BSA prepared in PBS at 200 μL/well at room temperature for 2 h. The plate was washed once with PBST, and was patted dry to remove the excess blocking solution. Each monoclonal antibody was diluted with 1% BSA prepared in PBST in a 3-fold gradient. The highest concentration of antibody was 10 μg/mL, and the antibody was diluted for 11 gradients. The diluted antibody was mixed 1:1 with 10 ng/ml IL-33-his-biotin, and then the mixture was added into the ELISA well at 100 μL/well. The plate was incubated at room temperature for 1 h. Each concentration was added to duplicate wells in parallel (maximum final concentration of antibody was […], final concentration of IL-33-his-biotin was 5 ng/mL). Unbound or non-specifically bound primary antibodies were washed out. […] 2M H₂SO₄ was added with 70 μL/well to terminate development, and the absorbance was measured at 450 nm on a multifunctional microplate reader. The data were analyzed.

Human IL-33-his [6] = molecular target: T2, Human IL-33-his; assay: competition ELISA, antibody mixed with IL-33-his-biotin, ST2-Fc on plate; competitor ST2-Fc
Protocol: ST2-Fc protein was diluted to 1 μg/mL with ELISA coating solution to coat ELISA plate with 100 μL/well. The plate was placed in a wet box at 4° C. for 16 h for coating. The ELISA plate was washed 3 times with PBST, and then was blocked with 2% BSA prepared in PBS at 200 μL/well at room temperature for 2 h. The plate was washed once with PBST, and was patted dry to remove the excess blocking solution. Each monoclonal antibody was diluted with 1% BSA prepared in PBST in a 3-fold gradient. The highest concentration of antibody was 10 μg/mL, and the antibody was diluted for 11 gradients. The diluted antibody was mixed 1:1 with 10 ng/ml IL-33-his-biotin, and then the mixture was added into the ELISA well at 100 μL/well. The plate was incubated at room temperature for 1 h. Each concentration was added to duplicate wells in parallel (maximum final concentration of antibody was […], final concentration of IL-33-his-biotin was 5 ng/mL). Unbound or non-specifically bound primary antibodies were washed out. According to the instructions of the antibody, HRP labeled streptavidin secondary antibody was diluted to an appropriate concentration with antibody diluent solution, then it was added to ELISA plate with 100 μL/well, and was incubated at room temperature for 1 h. The ELISA plate was washed with PBST for 5 times, and was patted dry on absorbent paper to remove excess liquid. TMB developing solution was added with 100 μL/well for development to an appropriate degree. 2M H₂SO₄ was added with 70 μL/well to terminate development, and the absorbance was measured at 450 nm on a multifunctional microplate reader. The data were analyzed.

Human IL-33-his [7] = molecular target: T2, Human IL-33-his; assay: ELISA as Example 9, IL-33-his-biotin on streptavidin plate

B1: 871G1 (antibody, V domains shown)
VH: QVHLKESGPGLVAPSQSLSITCNVSGFSLSKYGVHWIRQTPGRGLDWLGVLRAGGTISYNSALMSRLSISEDISKSQVFLKMNDLQTDDSAIYFCARDHYYYSSFGGFASWGQGTLVTVSA
VL: DIQMTQSPASQSASLGESVTITCLASQTIGAWLAWYRQQPGKSPQLLIYAATRLADGVPSRFSGSGSGTKFSFKINNLQAEDFVIYYCQQLNSTPYTFGGGTRLEM
notes: Murine hybridoma antibody; also called murine antibody 871G1
EC50 (Cynomolgus IL-33-his): 0.04 nM
IC50 (Human IL-33-his [1]): 0.74 nM
IC50 of inhibition of IL-33-induced IL-6 expression in HUVEC cells (Human IL-33-his [2]): 1.66 nM
IC50 of inhibition of IL-33-induced IL-8 expression in HUVEC cells (Human IL-33-his [2]): 0.16 nM
EC50 (Human IL-33-his [3]): 0.14 nM

B2: 864F3-ch1 (antibody, human IgG4 S228P, kappa, V domains shown)
VH: QVQLKESGPGLVAPSQSLSITCTVSGFSLTNYGVHWVRLPPGKGLEWLGVIRAGGSSDYNSALMSRLNIRKDNSKSQVFLEMNSLQTADTAMYYCARDHYFSNSYGGSPYWGQGTLVTVSA
VL: DIQMTQSPASQSASLGESVTITCLASQTIATWLAWYQQKPGKSPQLLIYAATRLADGVPSRFSGSGSGTEFSFKISSLQAEDFVIYYCQQLYNTPYTFGGGTKLEIKR
notes: Chimeric: murine variable regions on human IgG4 (S228P) and human kappa constant regions; also called chimeric antibody 864F3-ch1
EC50 (Human IL-33-his [4]): 0.127 nM
IC50 (read off the curve) (Human IL-33-his [5]): ~6 nM
IC50 (Human IL-33-his [6]): 45.2 nM

B3: 871G1-ch (antibody, human IgG4 S228P, kappa, V domains shown)
VH: B1 VH
VL: DIQMTQSPASQSASLGESVTITCLASQTIGAWLAWYRQQPGKSPQLLIYAATRLADGVPSRFSGSGSGTKFSFKINNLQAEDFVIYYCQQLNSTPYTFGGGTRLEMRT
notes: Chimeric: human IgG4 (S228P) and human kappa constant regions; also called chimeric antibody 871G1-ch
EC50 (Human IL-33-his [4]): 0.178 nM
EC50 (Human IL-33-his [7]): 0.255 nM
IC50 (Human IL-33-his [6]): 0.853 nM

B4: 874F7-ch (antibody, human IgG4 S228P, kappa, V domains shown)
VH: QVQLKESGPGLVAPSHSLSITCNVSGFSLSKYGVHWIRQIPGRGLDWLGVLRAGGSTGYNSALMSRLSISKDSSKSQVFLKMNDLRTDDTAVYFCVRDHYYYSSYGGFVYWGQGTLVTVSA
VL: B3 VL with K70E, I85S, N92D, T94S
notes: Chimeric: human IgG4 (S228P) and human kappa constant regions; also called chimeric antibody 874F7-ch
EC50 (Human IL-33-his [4]): 0.144 nM
EC50 (Human IL-33-his [7]): 0.177 nM
IC50 (Human IL-33-his [6]): 0.634 nM

From patent US20230399394A1 (SUNSHINE GUOJIAN PHARMACEUTICAL SHANGHAI, published 2023)
